The source of these data is patent US20250326825A1, “ANTI-FABP4 ANTIBODIES AND THEIR USES” (THE HONG KONG POLYTECHNIC UNIVERSITY, priority 2024, published 2025).

For series [1], the system named is hepatocellular carcinoma cells. The experiment in a line: Sphere formation / limiting dilution sphere analysis (self-renewal). The format is cell-based, human. How it is done: Sphere formation assay—Three to five hundred cells of PLC/PRF/5, Huh7 and hepatocellular carcinoma organoids (HK-HCC P1 and HCC #23) were seeded to 24-well plates coated with poly (2-hydroxyethyl methacrylate) (polyHEMA, Sigma Aldrich). Cells were grown in 500 μl of either conditioned media or serum-free 0.25% methylcellulose (Sigma-Aldrich) DMEM/F12 medium supplemented with 4 μg/mL insulin (Sigma-Aldrich), B27 (Invitrogen) and recombinant human FABP4 (rhFABP4, Biovision) at a concentration of either 20 ng/ml or 100 ng/ml. The number of tumourspheres (diameter larger than 100 μm) was counted under microscope after 8 to 12 days.
Limiting dilution assay—Parental or shITGB1 PLC/PRF/5 and Huh7 cells were cultured in a 96-well plate coated with polyHEMA with 200 μl serum-free 0.25% methylcellulose DMEM/F12 medium supplemented with 4 μg/mL insulin, B27 and rhFABP4 when appropriate. Sphere formation was scored after 8 to 12 days under a phase contrast microscope. The frequency of sphere-forming cell was calculated accordingly using an extreme limiting dilution algorithm (ELDA).

For series [2], the system named is hepatocellular carcinoma cells. In words: Cancer stem cell functional assays (overall). The format is cell-based, human. The settings on record: hepatocellular carcinoma cells in ADCM (FIG. 9A to 9D). The protocol: In summary, the methods shown herein were used to evaluate the interaction between differentiated adipocytes and HCC cells using a co-culture system. The conditioned medium of the adipocytes was profiled using Orbitrap liquid chromatography mass spectrometry. The functional role of FABP4 in the regulation of liver cancer stem cells was evaluated by various cancer stem cells functional assays. In vivo functional characterization of FABP4 was performed in Fabp4 knockout mice. Molecular pathways mediating phenotypic alterations were identified using mass spectrometry, RNA sequencing analysis, and pathway analysis. The therapeutic efficacy of monoclonal neutralising antibody against FABP4 was evaluated in two mouse models, a hepatocellular carcinoma (HCC) xenograft model and a MASLD-HCC model.

The conditions of series [3]: limits clinical use; cited from earlier work.
In a further series the test system is PLC/PRF/5 cells. The experiment in a line: In vivo tumorigenicity assay (limiting dilution), subcutaneous engraftment of pretreated PLC/PRF/5 cells. Set-up: species or system mouse (mouse (mouse (human cell xenograft) cell xenograft) cell xenograft). Conditions: PLC/PRF/5 pretreated with rhFABP4 at 100 ng/ml, NOD/SCID mice. How it is done: (§1) In vivo tumorigenicity assay—In vivo evaluation of tumorigenicity was performed with either male non-obese diabetic/severe combined immunodeficient (NOD/SCID) or NOD/SCID gamma mice, 4 to 6 weeks of age, by induction of tumour xenografts. Cells were suspended in 1:1 culture medium and BD Matrigel Matrix (BD Biosciences) and subcutaneously injected into the flanks of the mice, which were kept under observation. Briefly, each mouse received two injections of cells in both flanks. The cells were pretreated with either rhFABP4 (100 ng/ml) or ADCM for 24 hours, and, with their control group, were injected into NOD/SCID and NOD/SCID gamma mice, respectively. Tumours were harvested at the end of the experiment for documentation. Tumour-initiating cell frequency was calculated using Extreme Limiting Dilution Analysis (ELDA) software. No specific randomization method was used. Sample size of animals was chosen based on p-values. […] Mice were sacrificed if the percentage of body weight loss is greater than 20% including the tumour mass.

The subject of a further series is Huh7 cells. In words: In vivo tumorigenicity assay (limiting dilution), subcutaneous engraftment of pretreated Huh7 cells. More on the design: species or system mouse xenograft. The settings on record: Huh7 pretreated with rhFABP4 at 100 ng/ml, NOD/SCID mice. How it is done: as §1
Series [4] has as its system hepatocellular carcinoma cells. The experiment in a line: Migration and invasion transwell assays. In kind it is cell-based, human. The settings on record: rhFABP4 (FIG. 2G). The protocol: Migration and invasion assays—Migration assays were performed using polycarbonate membrane transwell inserts with pore size of 8 μm (Millipore). Invasion assays were performed using self-coated Matrigel (BD Biosciences) transwell inserts. Hepatocellular carcinoma cell lines (PLC/PRF/5 and Huh7) or patient-derived organoids (HK-HCC P1 and HCC #23) in serum-free medium were seeded in upper chamber, while the lower chamber was supplemented with either ADCM or 100 ng/mL rhFABP4 in serum-free medium as a chemoattractant. Serum-free DMEM was used as a negative control. Cells were incubated in humidified incubation at 37° C. for 48 hours. The transwell membranes were fixed with methanol and stained with 1% crystal violet. The membranes were cleaned and air-dried. Photographs of five randomly selected fields of the fixed cells were captured and the cells were counted using ImageJ.

Series [5] relates to hepatocellular carcinoma cells. The experiment in a line: Annexin-V apoptosis assay (drug resistance to doxorubicin or sorafenib). In kind it is cell-based, human. Conditions: rhFABP4 pretreatment (FIG. 2H). The protocol:
Annexin-V apoptosis assay—Cells were stained by FITC-conjugated Annexin-V (BioVision) and propidium iodide (PI) (Invitrogen) in Annexin-V binding buffer (BD Biosciences) at room temperature for 30 minutes. Apoptosis percentage was determined using BD Accuri C6 flow cytometer and FACSDiva software (BD Biosciences).

The subject of series [6] is hepatocellular carcinoma cells. The experiment in a line: Flow cytometric analysis of liver CSC markers. The settings on record: rhFABP4 20 ng/ml and 100 ng/ml (FIG. 2F). In kind it is cell-based, human. How it is done: Flow cytometric analysis—Cells were stained by Phycoerythrin (PE)-conjugated CD47 and CD90 antibodies (#536046 & #555596, BD Biosciences) in PBS with 2% FBS at 4° C. for 30 to 60 minutes. Isotype-matched mouse immunoglobulins served as controls. Samples were analysed using BD Accuri C6 flow cytometer and FACSDiva software (BD Biosciences).

Series [7] concerns PI3K/AKT/β-catenin signalling. In words: Western blot of AKT/GSK3β/β-catenin signalling in hepatocellular carcinoma cells. In kind it is cell-based, human. The settings on record: ADCM or rhFABP4 treatment (FIG. 5D). An excerpt: Western blot analysis—Whole cell lysates were extracted using either NETN buffer supplemented with protease inhibitor cocktail or direct lysis. Protein lysate was separated by SDS-polyacrylamide gel electrophoresis (SDS-PAGE) and transferred to polyvinylidene difluoride membrane (Millipore) for western blot analyses. Primary antibodies FABP4[EPR3579](1:1000, ab92501, Abcam), pAKT(Ser473) (D9E), pGSK3β(Ser9) (D3A4), AKT and β-catenin (D10A8) (1:1000, #4060S, #9322S, #9272S & #8480S, Cell Signaling Technology), GSK3β(clone 7) (1:1000, #610202, clone 7, BD Transduction Laboratories), DDK (OTI4C5) (1:1000,TA50011-100, Origene), ITGB1 (1:1000, 12594-1-AP, Proteintech) and β-ACTIN (AC-74) (1:5000, #A5316, Sigma Aldrich) were incubated at 4° C. overnight. After washing, the membrane was incubated with horseradish peroxidase-conjugated anti-mouse or rabbit antibody (GE HealthCare). The signals were visualized using the enhanced chemiluminescence method. Blot images were quantified by densitometry using ImageJ software. The protein expression was normalized to β-actin and expressed as fold change relative to respective controls.

The test system of a further series is β-catenin. In words: Beta-catenin TCF binding luciferase (TOP/FOP) reporter assay. The format is cell-based, human. Conditions: ADCM or rhFABP4 for 24 hours (FIG. 5E). An excerpt:
Beta-catenin TCF binding luciferase reporter assay—β-catenin activity was examined using luciferase reporter assay of TCF/LEF-dependent transcription (TOP/FOPFLASH reporter assay). Either firefly luciferase pSuper8XTOPflash or pSuper8XFOPflash constructs (gifts from Dr. Moon R, University of Washington, USA), together with Renilla luciferase construct pRL-CMV (Promega, Madison, WI, USA) for normalization of transfection efficiency, were transfected using Lipofectamine 2000. Luciferase activities were assayed using Dual-Luciferase Reporter Assay System (Promega) according to manufacturer's protocol.

In series [8] the test system is hepatocellular carcinoma patient-derived organoids (HK-HCC P1 and HCC #23). The experiment in a line: Hepatocellular carcinoma patient-derived organoid assays. In kind it is cell-based, human. The source says: Hepatocellular carcinoma patient-derived organoids and culture conditions—Hepatocellular carcinoma tissue was obtained from patients undergoing hepatectomy at Queen Mary Hospital, Hong Kong. Samples were collected from patients who had not received any previous local or systemic treatment prior to operation. For organoid cultures, cells were isolated and cultured according to protocol. Hepatocellular carcinoma patient-derived organoids labelled HCC #23 was gift from Dr. Meritxell Huch of The Gudon Institute at the University of Cambridge.
Cell viability assay—Cell viability of organoid cultures treated with specified concentrations of rhFABP4 for 6 days was evaluated using CellTiter-Glo® Luminescent Cell Viability Assay (Promega) according to manufacturer's protocol.
Sphere formation assay—Three to five hundred cells of PLC/PRF/5, Huh7 and hepatocellular carcinoma organoids (HK-HCC P1 and HCC #23) were seeded to 24-well plates coated with poly (2-hydroxyethyl methacrylate) (polyHEMA, Sigma Aldrich). […] The number of tumourspheres (diameter larger than 100 μm) was counted under microscope after 8 to 12 days.
Migration and invasion assays—Migration assays were performed using polycarbonate membrane transwell inserts with pore size of 8 μm (Millipore). […] Photographs of five randomly selected fields of the fixed cells were captured and the cells were counted using ImageJ.

Another series deals with T1, ITGB1 (Homo sapiens, UniProt P05556).
T1 construct: endogenous in cells; host or cells: Huh7
T1 sequence (P05556 21-798): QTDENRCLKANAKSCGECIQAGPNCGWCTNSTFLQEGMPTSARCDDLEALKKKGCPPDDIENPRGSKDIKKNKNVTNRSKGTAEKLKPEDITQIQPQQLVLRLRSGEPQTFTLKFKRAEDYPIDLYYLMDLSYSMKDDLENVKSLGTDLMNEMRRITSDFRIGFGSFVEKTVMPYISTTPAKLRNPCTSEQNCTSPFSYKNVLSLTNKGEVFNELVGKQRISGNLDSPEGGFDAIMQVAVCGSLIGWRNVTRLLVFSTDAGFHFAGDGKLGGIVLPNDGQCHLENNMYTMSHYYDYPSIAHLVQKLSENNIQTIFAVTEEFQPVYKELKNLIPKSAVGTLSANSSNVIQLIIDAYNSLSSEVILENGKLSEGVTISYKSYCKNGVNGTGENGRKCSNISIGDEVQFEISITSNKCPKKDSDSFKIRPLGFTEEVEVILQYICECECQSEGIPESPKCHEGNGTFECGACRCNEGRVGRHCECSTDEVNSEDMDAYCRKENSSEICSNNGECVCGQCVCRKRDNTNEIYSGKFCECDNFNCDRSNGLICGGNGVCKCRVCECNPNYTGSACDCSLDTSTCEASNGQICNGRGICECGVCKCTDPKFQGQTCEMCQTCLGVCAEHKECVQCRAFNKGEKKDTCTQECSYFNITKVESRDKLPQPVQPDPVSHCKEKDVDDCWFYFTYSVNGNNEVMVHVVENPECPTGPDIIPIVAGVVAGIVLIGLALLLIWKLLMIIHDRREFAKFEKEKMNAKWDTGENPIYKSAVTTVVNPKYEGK
In words: Mass spectrometry / coimmunoprecipitation of FABP4 binding partner. The settings on record: biotin-labelled rhFABP4, Huh7 membrane surface. The protocol:
Biotinylation of rhFABP4 and Streptavidin capturing of membrane protein—rhFABP4 was biotin-labelled and crosslinked with sulfosuccinimidyl-2-[6-(biotinamido)-2-(p-azidobenzamido) hyxanoamido]ethyl-1,3′-ithiopropionate) (Sulfo-SBED, A39260, Thermo Fisher Scientific) according to manufacturer's instructions. In brief, 50 μg of rhFABP4 (#4504, BioVision) was incubated with 1 mg of dissolved Sulfo-SBED at room temperature for 30 minutes. The reaction mixture was desalted using Amicon® Ultra-0.5 centrifugal filter device with a 3,000 Molecular Weight Cut Off (Millipore, Germany). The desalted biotinylated rhFABP4 was incubated in PBS with adherent Huh7 cells at room temperature for 10 minutes. The cell surface proteins interacting with biotinylated rhFAPB4 was captured by the photoreactive aryl azide moiety using long wave-UV at 360 nm. The labelled proteins were isolated by NeutrAvidin Agarose slurry and reduced using Pierce™ Cell Surface Protein Biotinylation and Isolation Kit (#A44390, Thermo Fisher Scientific). The interacting rhFABP4-surface protein complex was isolated, and the disulfide bond reduced, resulting in the biotin label being transferred to the interacting proteins. […]

Take `CCc1c(-c2ccccc2)c(-c2ccccc2)nn1-c1ccccc1-c1cccc(OCC(=O)O)c1` [BMS-309403]: in [1] (PLC/PRF/5, ADCM, inhibitor at 1 μM), the “Enhancing self-renewal ability of ADCM (tumoursphere formation)” value is on record as “suppressed”. Moreover, the “Effects of ADCM on liver cancer stem cell properties” value in series [2] is reported as “attenuation”. Besides, the Side effects entry in [3] is recorded as “acute cardiac depressant effect”.

B1: rhFABP4: recombinant human FABP4 protein (Biovision) (protein, UniProt P15090 2-132, looked up)
Fatty acid-binding protein, …: CDAFVGTWKLVSSENFDDYMKEVGVGFATRKVAGMAKPNMIISVNGDVITIKSESTFKNTEISFILGQEFDEVTADDRKVKSTITLDGGVLVHVQKWDGKSTTIKRKREDDKLVVECVMKGVTSTRVYERA
Turning to B1, the “Estimated CSC frequency” value in the series with PLC/PRF/5 cells (extreme limiting dilution) is on record as 1/2108; in the series on Huh7 cells (extreme limiting dilution), 1/3404. The “Tumor incidence rate, 1 × 10^3 cells” value was 3/5 in the series on PLC/PRF/5 cells (subcutaneous, 1 × 10^3 cells) and 3/5 in the series on Huh7 cells (subcutaneous, 1 × 10^3 cells). For the same molecule, the “Tumor incidence rate, 5 × 10^3 cells” value in the series with PLC/PRF/5 cells (subcutaneous, 5 × 10^3 cells) was 4/5; in the series with Huh7 cells (subcutaneous, 5 × 10^3 cells), 4/5. Besides, the “Tumor incidence rate, 1 × 10^4 cells” value in the series on Huh7 cells (subcutaneous, 1 × 10^4 cells) is recorded as 4/5. Moreover, the “Self-renewal (sphere formation)” value in series [1] (rhFABP4 20 ng/ml and 100 ng/ml (FIG. 2D)) was “promote”. In addition, the “Cell migration and invasion” value in series [4] is “promote”. Moreover, the “Resistance to doxorubicin and sorafenib treatment” value in [5] is listed as “promote”. Further, in series [6], the “Expression of liver CSC markers” value was “promote”. Also, the “AKT phosphorylation at Ser473” value in series [7] is on record as “activated”. The “GSK3β phosphorylation at Ser9” value in [7] was “inactivation”. For the same molecule, in series [7], the “Total β-catenin” value is listed as “accumulation”. Moreover, in the series on β-catenin, the “Transactivation of β-catenin (TOP/FOP reporter)” value is given as “enhanced”. Moreover, the “Self-renewal of patient-derived organoids” value in series [8] (rhFABP4 (FIG. 4B)) is on record as “confer self-renewal”. Further, the “Size of organoids and their proliferative rate” value in [8] (rhFABP4, 6 days, CellTiter-Glo (FIG. 4C)) was “increase”. For the same molecule, the “Interaction with membrane receptor ITGB1” value with ITGB1 is listed as “directly interacts”.
